# According to patent publication US20190112348A1:
# Tests used:
# [1] = target: purified recombinant human insulin receptor (either with or without exon 11) (human) (UniProt P06213); test: SPA competition vs A14Tyr[125I]-human insulin on recombinant human insulin receptor, relative to human insulin, 0% HSA
# [2] = target: purified recombinant human insulin receptor (either with or without exon 11) (human) (UniProt P06213); test: SPA competition vs A14Tyr[125I]-human insulin on recombinant human insulin receptor, relative to human insulin, 4.5% HSA in buffer
# purified recombinant human insulin receptor (either with or without exon 11) (human), sequence (P06213 other isoform, or with tags, fused parts or gaps limits assumed, form in doubt): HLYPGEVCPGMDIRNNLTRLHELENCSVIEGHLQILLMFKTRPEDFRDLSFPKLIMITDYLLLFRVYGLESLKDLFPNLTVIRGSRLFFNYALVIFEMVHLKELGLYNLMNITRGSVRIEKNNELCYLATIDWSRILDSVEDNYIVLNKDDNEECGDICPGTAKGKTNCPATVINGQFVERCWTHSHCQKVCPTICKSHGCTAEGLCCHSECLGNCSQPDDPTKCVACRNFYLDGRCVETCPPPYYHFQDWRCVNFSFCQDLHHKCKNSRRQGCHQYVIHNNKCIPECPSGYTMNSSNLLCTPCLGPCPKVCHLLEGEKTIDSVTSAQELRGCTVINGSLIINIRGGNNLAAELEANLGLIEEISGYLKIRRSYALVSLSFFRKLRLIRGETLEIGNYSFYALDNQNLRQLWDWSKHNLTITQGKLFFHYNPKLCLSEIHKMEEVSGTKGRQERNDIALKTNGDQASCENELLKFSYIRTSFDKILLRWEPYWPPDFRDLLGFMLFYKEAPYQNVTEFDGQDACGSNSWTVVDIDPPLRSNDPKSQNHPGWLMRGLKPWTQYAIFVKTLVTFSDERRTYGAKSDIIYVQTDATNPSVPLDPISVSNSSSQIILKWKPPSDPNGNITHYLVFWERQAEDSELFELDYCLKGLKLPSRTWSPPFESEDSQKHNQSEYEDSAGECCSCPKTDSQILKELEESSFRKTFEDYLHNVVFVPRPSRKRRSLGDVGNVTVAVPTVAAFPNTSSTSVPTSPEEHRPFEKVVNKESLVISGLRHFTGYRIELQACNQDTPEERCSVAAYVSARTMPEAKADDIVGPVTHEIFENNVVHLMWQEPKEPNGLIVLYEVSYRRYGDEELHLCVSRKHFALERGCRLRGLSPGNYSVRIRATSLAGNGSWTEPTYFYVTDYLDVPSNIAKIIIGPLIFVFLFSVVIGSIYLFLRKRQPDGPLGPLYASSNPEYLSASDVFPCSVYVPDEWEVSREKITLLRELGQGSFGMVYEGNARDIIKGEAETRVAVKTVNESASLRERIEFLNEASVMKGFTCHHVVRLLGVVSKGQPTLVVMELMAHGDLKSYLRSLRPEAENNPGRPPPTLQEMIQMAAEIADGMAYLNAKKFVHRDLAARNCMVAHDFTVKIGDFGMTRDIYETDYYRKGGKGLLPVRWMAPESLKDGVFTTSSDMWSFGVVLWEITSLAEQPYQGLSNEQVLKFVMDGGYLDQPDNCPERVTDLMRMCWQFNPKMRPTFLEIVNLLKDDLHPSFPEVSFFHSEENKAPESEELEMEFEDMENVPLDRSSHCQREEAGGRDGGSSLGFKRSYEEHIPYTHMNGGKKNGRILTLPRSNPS
Relative IR-A affinity (@ 0% HSA) [1] [%],Relative IR-A affinity (@ 4.5% HSA) [2] [%],Substance
1.9,0.08,"A14E, B25H, B27K(N^εOctadecanedioyl-γGlu-OEG-OEG), desB28, desB29, desB30 Human Insulin (from UniProt P01308 90-110; P01308 25-51) (ligand)"
2.5,–,"A14E, B25H, desB27, B29K(N^εOctadecanedioyl-γGlu-OEG-OEG), desB30 Human Insulin (from UniProt P01308 90-110; P01308 25-50; P01308 52-53) (ligand)"
